Earlier results as cited in article PMC5356237.

Target: HER3 (Homo sapiens) (UniProt P21860)
Sequence of UniProt P21860 (P21860 20-1342): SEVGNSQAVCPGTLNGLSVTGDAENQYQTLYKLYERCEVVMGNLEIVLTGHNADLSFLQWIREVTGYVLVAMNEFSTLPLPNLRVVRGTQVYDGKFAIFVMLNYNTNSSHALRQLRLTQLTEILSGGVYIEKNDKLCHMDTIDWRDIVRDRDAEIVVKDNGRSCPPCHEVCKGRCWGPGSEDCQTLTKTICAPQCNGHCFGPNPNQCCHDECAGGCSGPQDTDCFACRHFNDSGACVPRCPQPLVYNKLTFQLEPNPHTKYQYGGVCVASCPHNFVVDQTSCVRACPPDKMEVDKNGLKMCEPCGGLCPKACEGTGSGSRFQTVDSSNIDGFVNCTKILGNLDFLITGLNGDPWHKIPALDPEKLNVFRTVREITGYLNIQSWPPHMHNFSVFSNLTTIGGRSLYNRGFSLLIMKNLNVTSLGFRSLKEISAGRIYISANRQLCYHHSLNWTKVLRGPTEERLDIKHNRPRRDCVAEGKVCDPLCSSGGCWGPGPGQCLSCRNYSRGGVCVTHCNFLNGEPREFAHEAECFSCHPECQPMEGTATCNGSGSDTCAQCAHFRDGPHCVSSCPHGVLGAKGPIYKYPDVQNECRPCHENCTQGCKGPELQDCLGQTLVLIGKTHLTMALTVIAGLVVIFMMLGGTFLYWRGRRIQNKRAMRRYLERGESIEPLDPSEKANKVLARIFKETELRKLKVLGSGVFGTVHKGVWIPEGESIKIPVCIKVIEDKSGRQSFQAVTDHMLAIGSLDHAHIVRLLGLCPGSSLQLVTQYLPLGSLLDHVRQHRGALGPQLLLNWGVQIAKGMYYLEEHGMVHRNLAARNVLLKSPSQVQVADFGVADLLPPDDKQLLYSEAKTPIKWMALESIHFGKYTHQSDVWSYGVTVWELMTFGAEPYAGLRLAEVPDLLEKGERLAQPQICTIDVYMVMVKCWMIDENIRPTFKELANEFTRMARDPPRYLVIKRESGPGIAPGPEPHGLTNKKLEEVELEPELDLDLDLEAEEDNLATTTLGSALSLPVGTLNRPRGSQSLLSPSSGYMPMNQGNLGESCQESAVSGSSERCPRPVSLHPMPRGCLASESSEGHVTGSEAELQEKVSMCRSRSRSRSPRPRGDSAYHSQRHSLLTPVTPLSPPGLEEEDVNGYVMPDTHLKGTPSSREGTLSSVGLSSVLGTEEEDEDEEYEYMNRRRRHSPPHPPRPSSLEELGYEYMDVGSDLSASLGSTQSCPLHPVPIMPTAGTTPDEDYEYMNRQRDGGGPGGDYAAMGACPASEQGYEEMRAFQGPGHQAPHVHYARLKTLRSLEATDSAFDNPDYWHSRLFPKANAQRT

In the case of NRG1b (from UniProt Q02297), the Kd is listed as 0.1 nM.
